Reference: publication PMC6971430, “Manipulation of the dually thermoresponsive behavior of peptide‐based vesicles through modification of collagen‐like peptide domains” (Bioengineering & Translational Medicine, 2019)
Non-standard residues stand in square brackets, D forms with d. No end group written: not given here. *: point of attachment. Butanoyl(4-N3) = [N-]=[N+]=NCCCC(=O)*; Hyp = O=C(O)[C@@H]1C[C@@H](O)CN1; Pra = C#CC[C@H](N)C(=O)O

B1: N3-(GPO)3GFOGER(GPO)3GG (peptide)
peptide: {Butanoyl(4-N3)}-GP[Hyp]GP[Hyp]GP[Hyp]GF[Hyp]GERGP[Hyp]GP[Hyp]GP[Hyp]GG
notes: collagen-like peptide, printed in short form as N3-(GPO)3GFOGER(GPO)3GG and written out here; Forms a homotrimeric triple helix; details are in Supporting Information Section 1.1; also called CLP; source: synthetic peptide (Fmoc solid phase synthesis), purified by RP-HPLC
B2: (VPGFG)6-(GPO)3GFOGER(GPO)3GG (peptide)
chain: H-VPGFGVPGFGVPGFGVPGFGVPGFGVPGFG[Pra]GP[Hyp]GP[Hyp]GP[Hyp]GF[Hyp]GERGP[Hyp]GP[Hyp]GP[Hyp]GG
modifications: triazole (positions not given here); not fully specified (residue 31, bridges); also: no peptide bond between residues 31 and 32, the two parts are joined by azide-alkyne cycloaddition
notes: elastin-like peptide NH2-(VPGFG)6G', written out here; the last G stands for G' (propargylglycine); collagen-like peptide (GPO)3GFOGER(GPO)3GG as in m2; the printed O (hydroxyproline) is written as P; Two synthetic peptides joined through a triazole, written as one chain; Reaction details are in Supporting Information Section 1.2; also called F6-GFOGER; ELP-CLP conjugate; source: synthetic …

Experiments:
[1] = molecular target: the molecule itself; test: circular dichroism spectroscopy; free CLP peptides, 0.35 mM in HPLC grade water (pH 6.5 at 4°C), 0.2 cm cuvette; wavelength scans at 4 and 80°C and melting scans; monomers to triple helix
[2] = molecular target: the molecule itself; test: circular dichroism spectroscopy; ELP-CLP conjugates, wavelength scans at 0.1 mM and melting scans at 0.35 mM in HPLC grade water (pH 6.5 at 4°C), 0.2 cm cuvette; monomers to triple helix

Row | Protein | stoichiometry N [1] | stoichiometry N [2]
1 | B1 | 3 | –
2 | B2 | – | 3
